Laboratory results reported in US20170173105A1, “AUTOASSEMBLING PEPTIDES FOR THE TREATMENT OF PULMONARY LEAKAGE” (3-D MATRIX, LTD., priority 2014, published 2017).

Columns and labels:
[1] = Rheological properties of peptide solutions and hydrogels after salt ionic strength adjustment; format: physicochemical
Method: Based on the visual observation of the effect of salt ionic strength on the properties of the peptide solutions, the effect on the rheological properties of the peptide solutions after adjusting their ionic strength level with NaCl to 0.7 M (PuraMatrix®), 0.2 M (KLD12) or 0.02 M (IEIK13), which is closely below the critical ionic strength at which each peptide becomes cloudy, was evaluated. If the ionic strength levels with NaCl of peptide solutions are higher than 0.9 M (PuraMatrix®), 0.3 M (KLD12) or 0.03 M (IEIK13), the peptide solution begin phase separation becoming cloudy and weak. The rheological property of PuraMatrix®, KLD12 and IEIK13 solutions was higher after adjusting their ionic strength level with NaCl to 0.7 M (PuraMatrix®), 0.2 M (KLD12) or 0.02 M (IEIK13), The results are shown in FIG. 10 for KLD12 1%, FIG. 11 for IEIK13 1%, and FIG. 12 for PuraMatrix® 1%, respectively. Frequency sweep tests were performed from 1 rad/s to 10 rad/s at 1 Pa.
Based on the results of the effect on the rheological properties of the peptide solutions after adjusting their ionic strength level with NaCl to 0.7 M (PuraMatrix®), 0.2 M (KLD12) or 0.02 M (IEIK13), the effect on the rheological properties of the peptide solution at various salt ionic strengths was evaluated. […] The results are shown in FIG. 13 for PuraMatrix® 1% solution and in FIG. 14 for IEIK13 1% solution. Frequency sweep tests were performed from 1 rad/sec to 10 rad/sec at 1 Pa and the storage modulus at 1 rad/sec was selected for data.
Based on the results of the effect on the rheological properties of the peptide solutions after adjusting their ionic strength levels, the effect on the rheological properties of the peptide hydrogels after DMEM treatment for 10 min was evaluated. […] The results are shown in FIG. 15 for PuraMatrix® 1% hydrogels and in FIG. 16 for IEIK13 1% hydrogels, both after DMEM treatment for 10 min Frequency sweep tests were performed from 1 rad/sec to 10 rad/sec at 1 Pa and the storage modulus at 1 rad/sec was selected for data.
Based on the results of the effect on the rheological properties of the peptide solutions and hydrogels after adjusting their ionic strength levels with NaCl, the effect of various salts (KCl, MgCl2, and CaCl2) was also evaluated. The rheological property of PuraMatrix® solutions increases with ionic strength adjustment at 0.15 M of all the salts. Increases of the rheological property of PuraMatrix® solutions with various salts were not predominantly different. However, increases of the rheological property of PuraMatrix® solutions may vary depending on the salting out constant, K of each salt. Constant K is a constant in Cohen's equation: log S=B−KI, where S is solubility, B is idealized solubility, K is salting out constant, and I is ionic strength. With a higher value of constant K and ionic strength of salts, solubility of the peptide may decrease resulting in strong peptide self-assembly with increased hydrophobic effect and higher rheological properties of the peptide solution. The constant K of NaCl may be higher than the other salts. […] The results are shown in FIG. 17 for PuraMatrix® 1% solution before DMEM treatment, and in FIG. 18 for PuraMatrix® 1% hydrogels after DMEM treatment for 10 min.
In accordance with one or more embodiments, IEIK13, KLD12, and PuraMatrix® may be dissolved both in salt buffer such as NaCl and at an elevated pH level adjusted with alkali salt buffer such as NaOH to keep their salt ionic strength under their critical salt points as well as their pH level to about 2.5˜4.0, so that they may have stiffer properties. With respect to PuraMatrix®, […] and IEIK13, the peptide solutions are still clear with 0.9% NaCl (ionic strength: 0.15 M) at pH 3.4 adjusted with NaOH. […] The effect of salt ionic strength and pH adjustment on the rheological properties of PuraMatrix® 2.5% solution are shown in FIG. 20. […]

[2] = Appearance of 1.5% peptide solutions with various salts at room temperature; format: physicochemical; conditions: for Appearance: room temperature
Method: The effect of salt ionic strength level on the properties of peptide solutions was evaluated to identify optimized salt ionic strength levels for the peptides as described herein. Increasing the salt ionic strength level of PuraMatrix® and other peptides may generally improve its function and mechanical strength for various clinical applications. To adjust the salt ionic strength of the peptide solutions by way of example, various salt buffer solutions including NaCl, KCl, MgCl2, CaCl2 and DPBS (10×) were added to 2 mL of 1.5% peptide solutions.

## Arg-Ala-Asp-Ala-Arg-Ala-Asp-Ala-Arg-Ala-Asp-Ala-Arg-Ala-Asp-Ala [PuraMatrix ®]
[1]; 0.15 M ionic strength, 1%
  rheological property of solutions with NaCl compared with KCl and CaCl2: slightly higher
[1]; 0.9% NaCl (ionic strength: 0.15 M) at pH 3.4 adjusted with NaOH
  appearance of peptide solutions with salt and pH adjustment: still clear
[1]; 1% hydrogels, DMEM treatment for 10 min
  rheological property of hydrogels after DMEM treatment at various ionic strengths: increased with ionic strength adjustment up to 0.7 M, while decreases above 0.7 M
[1]; 1% solution, storage modulus at 1 rad/sec
  rheological property of 1% solutions at various salt ionic strengths: increases with ionic strength adjustment up to 0.7 M, while decreases above 0.7 M
[1]; 2.5% solution, 0.9% NaCl (0.15 M) at pH 3.4 vs control and only NaCl 0.9%
  rheological property with salt and pH adjustment: stiffer
[1]; NaCl
  ionic strength level with NaCl at which the peptide solution begins phase separation becoming cloudy and weak: higher than 0.9 M
[1]; NaCl to 0.7 M (PuraMatrix®), 0.2 M (KLD12) or 0.02 M (IEIK13), 1% solutions
  rheological property of solutions after ionic strength adjustment with NaCl: higher
[1]; above 0.9 M of NaCl ionic strength
  gelation with DMEM treatment: no gelation
[1]; ionic strength adjustment at 0.15 M of all the salts (NaCl, KCl, MgCl2, CaCl2), 1%
  rheological property of solutions with various salts: increases
[2]; CaCl2 0 M, ionic strength 0 M, PuraMatrix 1.5%
  Appearance: Clear, thick gel
[2]; CaCl2 0.05 M, ionic strength 0.15 M, PuraMatrix 1.48%
  Appearance: Clear, thick, stiffer gel
[2]; CaCl2 0.1 M, ionic strength 0.3 M, PuraMatrix 1.45%
  Appearance: Clear, thick, stiffer gel
[2]; CaCl2 0.15 M, ionic strength 0.45 M, PuraMatrix 1.43%
  Appearance: Clear, thick, stiffer gel
[2]; CaCl2 0.2 M, ionic strength 0.6 M, PuraMatrix 1.4%
  Appearance: Clear, thick, stiffer gel
[2]; CaCl2 0.25 M, ionic strength 0.75 M, PuraMatrix 1.38%
  Appearance: Clear, thick, stiffer gel
[2]; CaCl2 0.3 M, ionic strength 0.9 M, PuraMatrix 1.35%
  Appearance: Clear, thick, stiffer gel
[2]; CaCl2 0.35 M, ionic strength 1.05 M, PuraMatrix 1.32%
  Appearance: Clear, thick, stiffer gel
[2]; CaCl2 0.383 M, ionic strength 1.15 M, PuraMatrix 1.31%
  Appearance: Clear, thick, stiffer gel
[2]; CaCl2 0.4 M, ionic strength 1.2 M, PuraMatrix 1.3%
  Appearance: Slightly cloudy, thick, stiffer gel
[2]; CaCl2 0.417 M, ionic strength 1.25 M, PuraMatrix 1.29%
  Appearance: Slightly cloudy, brittle gel
[2]; CaCl2 0.433 M, ionic strength 1.3 M, PuraMatrix 1.28%
  Appearance: Cloudy, phase-separated
[2]; DPBS (pH 3.2) 0 M, ionic strength 0 M, PuraMatrix 1.5%
  Appearance: Clear, thick gel
[2]; DPBS (pH 3.2) 0.15 M, ionic strength 0.15 M, PuraMatrix 1.35%
  Appearance: Clear, thick, stiffer gel
[2]; DPBS (pH 3.2) 0.3 M, ionic strength 0.3 M, PuraMatrix 1.2%
  Appearance: Clear, thick, stiffer gel
[2]; DPBS (pH 3.2) 0.45 M, ionic strength 0.45 M, PuraMatrix 1.05%
  Appearance: Clear, thick, stiffer gel
[2]; DPBS (pH 3.2) 0.6 M, ionic strength 0.6 M, PuraMatrix 0.9%
  Appearance: Clear, thick, stiffer gel
[2]; DPBS (pH 3.2) 0.75 M, ionic strength 0.75 M, PuraMatrix 0.75%
  Appearance: Clear, thick, stiffer gel
[2]; DPBS (pH 3.2) 0.9 M, ionic strength 0.9 M, PuraMatrix 0.6%
  Appearance: Clear, thick, stiffer gel
[2]; DPBS (pH 3.2) 0.95 M, ionic strength 0.95 M, PuraMatrix 0.55%
  Appearance: Slightly cloudy, brittle gel
[2]; DPBS (pH 3.2) 1.0 M, ionic strength 1.0 M, PuraMatrix 0.5%
  Appearance: Cloudy, phase-separated
[2]; KCl 0 M, ionic strength 0 M, PuraMatrix 1.5%
  Appearance: Clear, thick gel
[2]; KCl 0.15 M, ionic strength 0.15 M, PuraMatrix 1.43%
  Appearance: Clear, thick, stiffer gel
[2]; KCl 0.3 M, ionic strength 0.3 M, PuraMatrix 1.35%
  Appearance: Clear, thick, stiffer gel
[2]; KCl 0.45 M, ionic strength 0.45 M, PuraMatrix 1.27%
  Appearance: Clear, thick, stiffer gel
[2]; KCl 0.6 M, ionic strength 0.6 M, PuraMatrix 1.2%
  Appearance: Clear, thick, stiffer gel
[2]; KCl 0.75 M, ionic strength 0.75 M, PuraMatrix 1.13%
  Appearance: Clear, thick, stiffer gel
[2]; KCl 0.9 M, ionic strength 0.9 M, PuraMatrix 1.05%
  Appearance: Clear, thick, stiffer gel
[2]; KCl 0.95 M, ionic strength 0.95 M, PuraMatrix 1.03%
  Appearance: Clear, thick, stiffer gel
[2]; KCl 1.0 M, ionic strength 1.0 M, PuraMatrix 1.0%
  Appearance: Clear, thick, stiffer gel
[2]; KCl 1.05 M, ionic strength 1.05 M, PuraMatrix 0.98%
  Appearance: Slightly cloudy, thick, stiffer gel
[2]; KCl 1.1 M, ionic strength 1.1 M, PuraMatrix 0.95%
  Appearance: Slightly cloudy, brittle gel
[2]; KCl 1.15 M, ionic strength 1.15 M, PuraMatrix 0.93%
  Appearance: Cloudy, phase-separated
[2]; MgCl2 0 M, ionic strength 0 M, PuraMatrix 1.5%
  Appearance: Clear, thick gel
[2]; MgCl2 0.05 M, ionic strength 0.15 M, PuraMatrix 1.48%
  Appearance: Clear, thick, stiffer gel
[2]; MgCl2 0.1 M, ionic strength 0.3 M, PuraMatrix 1.45%
  Appearance: Clear, thick, stiffer gel
[2]; MgCl2 0.15 M, ionic strength 0.45 M, PuraMatrix 1.43%
  Appearance: Clear, thick, stiffer gel
[2]; MgCl2 0.2 M, ionic strength 0.6 M, PuraMatrix 1.4%
  Appearance: Clear, thick, stiffer gel
[2]; MgCl2 0.25 M, ionic strength 0.75 M, PuraMatrix 1.38%
  Appearance: Clear, thick, stiffer gel
[2]; MgCl2 0.3 M, ionic strength 0.9 M, PuraMatrix 1.35%
  Appearance: Clear, thick, stiffer gel
[2]; MgCl2 0.35 M, ionic strength 1.05 M, PuraMatrix 1.32%
  Appearance: Clear, thick, stiffer gel
[2]; MgCl2 0.383 M, ionic strength 1.15 M, PuraMatrix 1.31%
  Appearance: Clear, thick, stiffer gel
[2]; MgCl2 0.4 M, ionic strength 1.2 M, PuraMatrix 1.3%
  Appearance: Slightly cloudy, thick, stiffer gel
[2]; MgCl2 0.417 M, ionic strength 1.25 M, PuraMatrix 1.29%
  Appearance: Slightly cloudy, brittle gel
[2]; MgCl2 0.433 M, ionic strength 1.3 M, PuraMatrix 1.28%
  Appearance: Cloudy, phase-separated
[2]; NaCl 0 M, ionic strength 0 M, PuraMatrix 1.5%
  Appearance: Clear, thick gel
[2]; NaCl 0.15 M, ionic strength 0.15 M, PuraMatrix 1.43%
  Appearance: Clear, thick, stiffer gel
[2]; NaCl 0.3 M, ionic strength 0.3 M, PuraMatrix 1.35%
  Appearance: Clear, thick, stiffer gel
[2]; NaCl 0.45 M, ionic strength 0.45 M, PuraMatrix 1.27%
  Appearance: Clear, thick, stiffer gel
[2]; NaCl 0.6 M, ionic strength 0.6 M, PuraMatrix 1.2%
  Appearance: Clear, thick, stiffer gel
[2]; NaCl 0.75 M, ionic strength 0.75 M, PuraMatrix 1.13%
  Appearance: Clear, thick, stiffer gel
[2]; NaCl 0.8 M, ionic strength 0.8 M, PuraMatrix 1.10%
  Appearance: Clear, thick, stiffer gel
[2]; NaCl 0.85 M, ionic strength 0.85 M, PuraMatrix 1.08%
  Appearance: Clear, thick, stiffer gel
[2]; NaCl 0.9 M, ionic strength 0.9 M, PuraMatrix 1.05%
  Appearance: Slightly cloudy, brittle gel
[2]; NaCl 0.95 M, ionic strength 0.95 M, PuraMatrix 1.03%
  Appearance: Cloudy, phase-separated
[2]; NaCl 1.0 M, ionic strength 1.0 M, PuraMatrix 1.0%
  Appearance: Cloudy, phase-separated
[2]; up to the ionic strength at which solutions stay clear
  apparent stiffness on salt ionic strength increase: increased
